Experimental data as given in paper PMC9334538 (2022).

Molecular target: WT SARS-CoV-2 RBD (amino acids 321 to 591 of spike) (SARS-CoV-2, UniProt P0DTC2 321-591)
Test: SPR

B1: aRBD-5-Fc (Fc fusion)
chain: QVQLVESGGGLVQPGGTLRLSCAASGFTLDYYAIGWFRQAPGKEREGVSCISGSGGITNYTDSVKGRFTISRDNAKNTVYLQMNSLKPEDTAVYYCAPVSHTVVAGCAFEAWTDFGSWGQGTQVTVSS
In the case of B1, the koff is reported as 0.0143 s⁻¹.
